The target in the first series is T1, 6xHis-PA3225 (Pseudomonas aeruginosa UCBPP-PA14) (UniProt A0A0H2ZDR5).
T1 sequence: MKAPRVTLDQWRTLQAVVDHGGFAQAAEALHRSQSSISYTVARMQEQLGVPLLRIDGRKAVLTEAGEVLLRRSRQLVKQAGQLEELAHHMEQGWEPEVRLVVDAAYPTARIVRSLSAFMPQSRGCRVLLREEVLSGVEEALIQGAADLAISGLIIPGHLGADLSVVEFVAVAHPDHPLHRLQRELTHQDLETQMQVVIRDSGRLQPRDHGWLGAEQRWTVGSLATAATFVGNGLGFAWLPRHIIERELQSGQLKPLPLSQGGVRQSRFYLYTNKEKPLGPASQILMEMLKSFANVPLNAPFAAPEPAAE
Briefly: EMSA. A general note: Mobility shift assays separate free from complexed probe on a gel.
As to “TAGTTGACTGGATCAACCACATTTACATTAGGTTTACTCGGCCAAACCAATGAACTACCCCGTGAATCCCGACCTGATGCCCGCGCTGATGGCGGTCTTCCAGCATGTACGGACGCGCATCCAGAGCGAGCTCGATT (double strand) [Cy5-PmexAB-oprM probe 2]”, the binding entry is “no binding”.

Turning to “ATGGCTGGCGTTCGTTGCATAGCGTTGTCCTCATGAGCGAAAGCGGCCGATGCAGCGTGAAGGCGCTGCACCGGCTCGAAGAAGGCAGGCAAAATACTTACATTCATAGGTGTTTGTAAACGTCCGAAAGC (double strand) [Cy5-PmexAB-oprM probe 4]”, the binding entry is “no binding”.

In the case of “ATGTGGTTGATCCAGTCAACTATTTTGCTTATTTTAGTTGACCTTATCAACCTTGTTTCAGGTTCTGAATATGGGCCATGGCGCCGGGTGGATAACCGGCCATCGAGCTAAAACGTTTCAGGTGTTTTCACGCGAGGCTTTCGGACGTTTACA (double strand) [Cy5-PmexAB-oprM probe 3]”, the binding entry is “binds”.

In another series the target is T1, 6xHis-PA3225 (Pseudomonas aeruginosa UCBPP-PA14). Briefly: competition.
Take “ATGTGGTTGATCCAGTCAACTATTTTGCTTATTTTAGTTGACCTTATCAACCTTGTTTCAGGTTCTGAATATGGGCCATGGCGCCGGGTGGATAACCGGCCATCGAGCTAAAACGTTTCAGGTGTTTTCACGCGAGGCTTTCGGACGTTTACA (double strand) [PmexAB-oprM probe 3 unlabeled]”: the binding entry is given as “binds”.

For the sequence “ATGGCTGGCGTTCGTTGCATAGCGTTGTCCTCATGAGCGAAAGCGGCCGATGCAGCGTGAAGGCGCTGCACCGGCTCGAAGAAGGCAGGCAAAATACTTACATTCATAGGTGTTTGTAAACGTCCGAAAGC (double strand) [PmexAB-oprM probe 4 unlabeled]”, the binding result is “no binding”.

As for “TAGTTGACTGGATCAACCACATTTACATTAGGTTTACTCGGCCAAACCAATGAACTACCCCGTGAATCCCGACCTGATGCCCGCGCTGATGGCGGTCTTCCAGCATGTACGGACGCGCATCCAGAGCGAGCTCGATT (double strand) [PmexAB-oprM probe 2 unlabeled]”, the binding entry was “no binding”.

The values above are taken from paper PMC5527654.
